From doi:10.1101/2024.04.15.589559

Molecular target: pre-formed CPX-SNARE complex (Complexin 1 with Syntaxin1A, SNAP25B and VAMP2) (human | rat | mouse) (UniProt O14810)
Sequence (O14810 whole entry, chain 1 of 4): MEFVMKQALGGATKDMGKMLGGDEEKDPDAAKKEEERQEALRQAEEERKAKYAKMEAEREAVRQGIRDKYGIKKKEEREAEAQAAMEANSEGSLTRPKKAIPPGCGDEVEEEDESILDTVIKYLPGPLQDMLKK
Sequence (P32851 whole entry, chain 2 of 4, further chain): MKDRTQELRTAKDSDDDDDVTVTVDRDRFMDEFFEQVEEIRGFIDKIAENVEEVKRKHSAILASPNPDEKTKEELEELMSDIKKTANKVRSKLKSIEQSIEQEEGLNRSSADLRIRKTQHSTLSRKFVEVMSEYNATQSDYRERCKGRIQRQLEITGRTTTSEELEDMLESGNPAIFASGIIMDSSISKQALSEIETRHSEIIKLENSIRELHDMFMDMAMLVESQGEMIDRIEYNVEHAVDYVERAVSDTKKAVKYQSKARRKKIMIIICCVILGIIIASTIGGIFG
Sequence (P60879 whole entry, chain 3 of 4, further chain): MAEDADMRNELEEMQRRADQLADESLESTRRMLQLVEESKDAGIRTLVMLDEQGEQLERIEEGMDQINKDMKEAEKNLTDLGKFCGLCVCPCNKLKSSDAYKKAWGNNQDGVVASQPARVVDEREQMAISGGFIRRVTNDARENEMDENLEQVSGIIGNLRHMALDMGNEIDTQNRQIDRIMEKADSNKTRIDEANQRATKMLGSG
Sequence (P63027 whole entry, chain 4 of 4, further chain): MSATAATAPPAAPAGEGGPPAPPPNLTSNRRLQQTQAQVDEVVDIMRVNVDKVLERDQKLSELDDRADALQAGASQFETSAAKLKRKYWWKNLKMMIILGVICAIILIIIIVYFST

Substance: Syt7^DA (SUMO-Syt1^TMD-Syt7 with D225A, D227A, D233A, D357A, D359A) (from UniProt Q62747 17-403)
- reduction in Ca2+ (100 μM)-evoked fusion of Syt1^WT/VAMP2 vesicles with Syt7^DA in the t-SNARE bilayer, 1:800 to 1:200 protein-to-lipid (~30% to ~70%): 70%
